Target: amyloid precursor protein (APP), full length (106 kDa), from MOG-G-UVW cell lysate (human) (UniProt P05067)
Test: competition sandwich ELISA on APP from MOG cell lysate; competitor: APP DuoSet detection antibody; irrelevant IgG at 20 µg/ml

UniProt P05067, sequence (P05067 18-770): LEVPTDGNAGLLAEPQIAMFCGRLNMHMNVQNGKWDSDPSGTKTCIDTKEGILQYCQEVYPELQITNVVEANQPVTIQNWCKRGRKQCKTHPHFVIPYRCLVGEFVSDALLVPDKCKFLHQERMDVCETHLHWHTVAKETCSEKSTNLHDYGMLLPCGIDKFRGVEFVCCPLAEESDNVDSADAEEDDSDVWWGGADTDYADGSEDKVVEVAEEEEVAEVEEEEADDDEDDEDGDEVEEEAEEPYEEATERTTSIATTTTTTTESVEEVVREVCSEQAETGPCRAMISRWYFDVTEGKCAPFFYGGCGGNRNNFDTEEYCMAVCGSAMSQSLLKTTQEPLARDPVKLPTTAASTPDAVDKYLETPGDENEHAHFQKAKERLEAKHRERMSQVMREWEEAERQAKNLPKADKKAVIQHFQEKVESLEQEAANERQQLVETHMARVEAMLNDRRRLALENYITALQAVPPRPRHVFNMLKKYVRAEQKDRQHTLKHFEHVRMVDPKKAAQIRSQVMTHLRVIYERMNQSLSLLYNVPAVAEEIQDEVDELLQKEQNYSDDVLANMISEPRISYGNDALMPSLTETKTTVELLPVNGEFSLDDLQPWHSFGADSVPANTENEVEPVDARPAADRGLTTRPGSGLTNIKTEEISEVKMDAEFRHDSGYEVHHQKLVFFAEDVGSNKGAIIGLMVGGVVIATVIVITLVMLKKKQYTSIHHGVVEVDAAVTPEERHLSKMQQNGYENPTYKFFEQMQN

irrelevant mouse IgG antibody (Perbio Science)
% reduction of the binding of the second commercial antibody: 3.3%
